Tests used:
Assay in all cases: cell_activity
[1] = tested on: LDLRE2.1 (LDLR2.1) TALEN pair (synthetic construct); settings: mRNA, pig fibroblasts, 30 C; plasmid 14.4-21.5
[2] = tested on: ACAN12 TALEN pair (+63) (synthetic construct); settings: SURVEYOR, bovine fibroblasts; 29 in Table 1
[3] = tested on: ACAN12 TALEN pair (+231) (synthetic construct); settings: +231 scaffold in fibroblasts; indels confirmed in bovine embryos (Table 2)
[4] = tested on: DMDE6 TALEN pair (synthetic construct); settings: pig fibroblasts
[5] = tested on: DMDE7.1 TALEN pair (synthetic construct); settings: SURVEYOR, pig fibroblasts; 27 in Table 1
[6] = tested on: GHRHR2.3 TALEN pair (synthetic construct); settings: mRNA, female pig fibroblasts; male 32.5; puro-free plasmid G-418 29
[7] = tested on: LDLRE4.2 TALEN pair (synthetic construct); settings: male pig fibroblasts; female 19
[8] = tested on: p65 (p6511.1) TALEN pair (synthetic construct); settings: 10 ng/ul mRNA each, porcine zygotes

CTCCTACAAGTGGATTGTGATGGGAACACCGAGTGCAAGGACGGGTCCG (double strand) [porcine LDLR exon 2 target]
activity (% modified (day 3)) [1]: 34

bovine ACAN12 target
activity (% chromosomes cleaved) [2]: 25 | activity (% chromosomes cleaved) [3]: < 1

porcine DMD exon 6 target
activity (% modified (day 3)) [4]: 25

porcine DMD exon 7 target
activity (% chromosomes cleaved) [5]: 38

porcine GHRHR target
activity (% modified (day 3)) [6]: 35

porcine LDLR exon 4 target
activity (% modified (day 3)) [7]: 20

porcine RELA (p65) target
activity (% embryos with indels (16/56)) [8]: 29

Source: US20130117870
